Test results as given in publication PMC5934816, “Towards development of aptamers that specifically bind to lactate dehydrogenase of Plasmodium falciparum through epitopic targeting”.

Legend:
[1] = biological target: rPvLDH, lactate dehydrogenase (Plasmodium vivax, UniProt Q4PRK9 1-316); experiment: ELONA; settings: protein: recombinant; chain copies: 4
[2] = biological target: rPfLDH, lactate dehydrogenase (Plasmodium falciparum, UniProt Q71T02 1-316); experiment: ELONA; ELONA: 500 ng immobilized protein; aptamer in HMCKN (2 mM HEPES, 0.2 mM MgCl2, 0.2 mM CaCl2, 0.2 mM KCl, 15 mM NaCl, pH 7.4), 2 h, room temperature; washes HMCKN then 25 mM TBS pH 7.6, 0.1% NP-40; settings: protein: recombinant; chain copies: 4; label: 5'-biotin

Binder | Kd [1] [µM] | binding result [2] | binding result [1]
GTTCGATTGGATTGTGCCGGAAGTGCTGGCTCGAAC (ssDNA) [pL1] | 0.0792 ± 0.0127 |  | 
C7 concatemer control (ssDNA) DNA: ACTTTGCACATGCTTATTCTTGTCTCCCATGCCTGTTGTGAGCCTCCTAAC |  | no binding | no binding
